The text below walks through data of patent US9212231B2, “TRAIL R2-specific multimeric scaffolds” (MEDIMMUNE, LLC, dated 2015).

Test [1] deals with Murine CD40L on the Th2 cell line D10.G4.1 (murine) (UniProt P27548).
Test [2] has as its target TRAIL R2-Fc fusion protein (human) (UniProt O14763). The experiment in a line: competition ELISA: inhibition of binding of 0.75 nM biotinylated TRAIL R2-Fc to plate-coated A9(1C12).
The target is the same in test [3]. The experiment in a line: competition ELISA on plate-coated A9(1C12).
Test [4] deals with TRAIL R2 expressed on the cell surface (human, UniProt O14763). Put plainly: cell-based or functional assay.
Test [5] concerns the target TRAIL R2 (recombinant, form not given) (human, UniProt O14763, biotin (in the capture ELISA and the competition ELISA of Example 14)). Put plainly: SPR (ProteOn XPR36), TRAIL R2 immobilised, equilibrium analysis.

Some results are limits rather than exact numbers.

Sequence of TRAIL R2-Fc fusion protein (human) (O14763 56-182 limits assumed): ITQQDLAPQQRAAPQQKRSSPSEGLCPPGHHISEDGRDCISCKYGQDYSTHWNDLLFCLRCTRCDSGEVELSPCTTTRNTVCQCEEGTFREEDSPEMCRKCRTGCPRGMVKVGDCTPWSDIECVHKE

Take MR1 antibody: the IC50, inhibition of Murine CD40L-induced CD86 expression on CD19 gated B cells in test [1] came out at 100000 nM.

B1: A2(1E11) (designed binder)
chain: SGGGGSAIEVKDVTDTTALITWAKPWVDPPPLWGCELAYGIKDVPGDRTTIDLQQKHTAYSIGNLKPDTEYEVSLICFDPYGAKSNPAKETFTTGGGGSGGGGSGGGGSAIEVKDVTDTTALITWAKPWVDPPPLWGCELAYGIKDVPGDRTTIDLQQKHTAYSIGNLKPDTEYEVSLICFDPYGAKSNPAKETFTTGGGGSGGGGSGTLGHHHHHHHH
Broadly, the IC50 is the concentration at which inhibition is half-maximal. Read a low IC50 as higher potency. The molecule B1 returned an IC50 in test [2] of 0.5 nM. Besides, in test [3], the fold higher affinity relative to the monomeric A1 protein was in the range of 30 to 40 fold and the fold lower IC50 than the monomer A1 is above 30 fold.

B2: A3(1E11) (designed binder)
chain: SGGGGSAIEVKDVTDTTALITWAKPWVDPPPLWGCELAYGIKDVPGDRTTIDLQQKHTAYSIGNLKPDTEYEVSLICFDPYGAKSNPAKETFTTGGGGSGGGGSGGGGSAIEVKDVTDTTALITWAKPWVDPPPLWGCELAYGIKDVPGDRTTIDLQQKHTAYSIGNLKPDTEYEVSLICFDPYGAKSNPAKETFTTGGGGSGGGGSGGGGSAIEVKDVTDTTALITWAKPWVDPPPLWGCELAYGIKDVPGDRTTIDLQQKHTAYSIGNLKPDTEYEVSLICFDPYGAKSNPAKETFTTGGGGSGGGGSGGGGSAIEVKDVTDTTALITWAKPWVDPPPLWGCELAYGIKDVPGDRTTIDLQQKHTAYSIGNLKPDTEYEVSLICFDPYGAKSNPAKETFTTGGGGSGGGGSGTLGHHHHHHHH
On to B2, for which the IC50 in test [2] was found to be 0.4 nM. Further, in test [3], the fold higher affinity relative to the monomeric A1 protein was in the range of 30 to 40 fold and the fold lower IC50 than the monomer A1 was above 30 fold. For the same molecule, in test [4], the “EC50, killing of H2122 cells” value came to 0.013 nM and the “Maximum Inhibition %, H2122 cells” value came out at 91%.

B3: A1(1E11) (designed binder)
chain: AIEVKDVTDTTALITWAKPWVDPPPLWGCELAYGIKDVPGDRTTIDLQQKHTAYSIGNLKPDTEYEVSLICFDPYGAKSNPAKETFTTGGGTLGHHHHHHHH
The term Kd denotes the equilibrium constant for the complex coming apart. In test [2], B3 yielded an IC50 of 16 nM. In test [5], the “Fold Improvement (Kd, against lead clone 1C12)” value came out at 40 fold and the Kd was 103 nM.
